Source: patent publication US20080213281A1, “Butyrylcholinesterase Variants that Alter the Activity of Chemotherapeutic Agents” (priority 2002, published 2008)
Changes are numbered by the printed parent chain. Names and notes keep the numbering of the source. Read-outs that look alike come from different tables or passages of the source.

What was measured:
[1] = patients treated with 200 mg/m2 CPT-11; for at least 24 hours; Ducreux et al.; cited from earlier work
CD20 (human) = CD20 (human) (UniProt P11836); assay: method not stated
[2] = cited from earlier work; for Km: Humerickhouse et al., read-out: Km (CPT-11 conversion)
[3] = in vitro; Pavillard et al.; cited from earlier work
[4] = CPT-11 hydrolysis by BChE variant 4-1, SN38 quantitated by reverse-phase HPLC, Km by Hofstee plot; type: biochemical; conditions: for Km / fold increase in CPT-11 hydrolysis over wild-type BChE: 37° C., 24 hours; for Km: 1-80 μM CPT-11; for fold increase in CPT-11 hydrolysis over wild-type BChE: SN38 peak AUC; for fold improvement in the Km for CPT-11: over wild-type / native serum BChE
Procedure: BChE plasmid variants were expressed transiently in the human embryonic kidney cell line 293T and assayed for activity at 72 hours post-transfection. Primary screening of variants was performed by indirect measurement of enzymatic activation of CPT-11 (FIG. 2) in SW48 colon carcinoma cell cytotoxicity assays. […] Functional hits identified in these assays were characterized by sequence analysis of the corresponding DNA from the original preps. […] Enzyme was incubated at 37° C. for 24 hours with CPT-11 over a range of concentrations from 1-80 μM. […] Velocity (v) is in light absorbance units at 540 nm. Substrate concentration [s] is μM CPT-11.
Samples were acidified and resolved by reverse-phase HPLC on a NovaPak C18 column to separate SN38 from unactivated CPT-11. SN38 peak area under the curve (AUC) was used to compare CPT-11 activation by the wild-type enzyme to the optimized BChE.4-1 variant.

[5] = HPLC assay of CPT-11 conversion to SN-38 by conditioned media of transiently expressed BChE variants; type: biochemical; conditions: for SN-38 formation from CPT-11 (in words): HPLC, compared to mock or wild-type
Procedure: Butyrylcholinesterase variants were assayed for CPT-11 conversion activity using fluorescent High Performance Liquid Chromotography (HPLC) detection of SN-38 formation as described in Dodds and Rivory, Mol. Pharmacol. 56:1346-1353 (1999), which is incorporated herein by reference. Briefly, conditioned media from transiently expressed BChE variants were exposed to 20 mM CPT-11 for 72 hours at 37° C. and analyzed by HPLC for SN-38 formation (peak at about 4 minutes column retention time).

[6] = o-nitrophenyl acetate (o-NPA) hydrolysis assay for carboxylesterase activity of antibody-captured butyrylcholinesterase variants; type: biochemical; conditions: antibody capture/normalization
Procedure: A modification of this assay that measures o-NPA activity of butyrylcholinesterase variants normalized by capturing with an anti-butyrylcholinesterase antibody was performed as described below.
Protocol to Determine Carboxylesterase activity of Captured Butyrylcholinesterase by o-Nitrophenyl acetate:
1) Coat 96-well Immulon 2 plates with rabbit anti-human butyrylcholinesterase (Dako #A0032) at 10 mg/ml in PBS (100 ml/well) overnight at 4° C. 2) Remove coating solution and block plate with 3% BSA in PBS (250 ml/well) for 2 hours at room temperature. 3) Add 200 ml butyrylcholinesterase variant conditioned media and incubate at RT for 2 hrs. 4) Wash plate 3 times with 250 ml/well PBS. 5) Add 85 ml/well 0.1 M potassium phosphate pH 7.0 6) Add 13.6 mg o-NPA to 100 ml acetonitrile, mix to dissolve. Add 100 ml of this stock to 6.3 mls water and mix well. 7) Wash plate 3 times with PBS. 8) Add 15 ml of diluted o-NPA substrate. 9) Read absorbance at 405 nm.
Conditioned media from butyrylcholinesterase variants that were transiently expressed in 293T cells was tested using the above described anti-butyrylcholinesterase antibody capture/normalization assay for carboxylesterase activity. […] The level of activity of the other variants can be compared to the level of activity of F227A. […] In order to determine the amount of variability present in the assay, several wells contained the same variant. […]

CD20 = biological target: T1, CD20 (Homo sapiens, UniProt P11836); assay: affinity of monovalent AME133 Fab for CD20; type: binding
T1 sequence (P11836 1-297): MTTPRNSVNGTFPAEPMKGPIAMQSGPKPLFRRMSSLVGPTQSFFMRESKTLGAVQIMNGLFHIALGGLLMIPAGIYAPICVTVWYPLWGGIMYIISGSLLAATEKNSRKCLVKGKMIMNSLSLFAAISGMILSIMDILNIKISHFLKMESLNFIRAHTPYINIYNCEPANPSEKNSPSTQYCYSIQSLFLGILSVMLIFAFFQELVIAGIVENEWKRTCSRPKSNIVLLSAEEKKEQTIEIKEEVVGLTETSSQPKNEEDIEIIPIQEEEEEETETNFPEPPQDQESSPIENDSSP
Source text: AME133 is a humanized anti-CD20 with fully human germline framework regions shown in FIGS. 19 and 20 and set forth as SEQ ID NOS: 198 and 200, with corresponding nucleic acid sequences SEQ ID NOS: 197 and 199. This antibody was generated at Applied Molecular Evolution using the company's directed evolution strategies, and the monovalent Fab binds to CD20 with extremely high affinity (1×10^−9 M). Anti-CD20-BChE.4-1 (SEQ ID NO: 202) is composed of AME133 Fab fused at the C-terminal end of the CH1 heavy chain domain to the N-terminus of modified BChE variant L530 (SEQ ID NO: 204), which is a functional fragment of reference SEQ ID NO: 180. The BChE variant was truncated at amino acid 530 to abrogate its normal assembly into tetramers.

## CCc1c2c(nc3ccc(OC(=O)N4CCC(N5CCCCC5)CC4)cc13)-c1cc3c(c(=O)n1C2)COC(=O)[C@]3(O)CC [CPT-11, 7-ethyl-10-[4-(1-piperidino)-1-piperidine]carbonyloxycamptothecin]
[1]
  plasma concentration of CPT-11: above 0.1 μM

## AME133 Fab (humanized anti-CD20 with fully human germline framework regions)
CD20 (human)
  Kd: 1 nM

## hCE-1
[2]
  Km: 43 µM

## CCc1c2c(nc3ccc(O)cc13)-c1cc3c(c(=O)n1C2)COC(=O)[C@]3(O)CC [SN38, 7-ethyl-10-hydroxycamptothecin]
[3]
  fold more cytotoxic than CPT-11: greater than 1000 fold

B1: hCE-2 (protein, UniProt O00748 27-559, looked up)
Cocaine esterase: QDSASPIRTTHTGQVLGSLVHVKGANAGVQTFLGIPFAKPPLGPLRFAPPEPPESWSGVRDGTTHPAMCLQDLTAVESEFLSQFNMTFPSDSMSEDCLYLSIYTPAHSHEGSNLPVMVWIHGGALVFGMASLYDGSMLAALENVVVVIIQYRLGVLGFFSTGDKHATGNWGYLDQVAALRWVQQNIAHFGGNPDRVTIFGESAGGTSVSSLVVSPISQGLFHGAIMESGVALLPGLIASSADVISTVVANLSACDQVDSEALVGCLRGKSKEEILAINKPFKMIPGVVDGVFLPRHPQELLASADFQPVPSIVGVNNNEFGWLIPKVMRIYDTQKEMDREASQAALQKMLTLLMLPPTFGDLLREEYIGDNGDPQTLQAQFQEMMADSMFVIPALQVAHFQCSRAPVYFYEFQHQPSWLKNIRPPHMKADHGDELPFVFRSFFGGNYIKFTEEEEQLSRKMMKYWANFARNGNPNGEGLPHWPLFDQEEQYLQLNLQPAVGRALKAHRLQFWKKALPQKIQELEEPEERHTEL
[2]
  Km: 3.4 µM
[2]; at pharmacologically relevant drug concentrations (˜1-10 μM)
  rate of CPT-11 conversion to SN38, fold higher than hCE-1: 25-30 fold

B2: wild-type butyrylcholinesterase (protein, UniProt P06276 29-602, looked up)
Cholinesterase: EDDIIIATKNGKVRGMNLTVFGGTVTAFLGIPYAQPPLGRLRFKKPQSLTKWSDIWNATKYANSCCQNIDQSFPGFHGSEMWNPNTDLSEDCLYLNVWIPAPKPKNATVLIWIYGGGFQTGTSSLHVYDGKFLARVERVIVVSMNYRVGALGFLALPGNPEAPGNMGLFDQQLALQWVQKNIAAFGGNPKSVTLFGESAGAASVSLHLLSPGSHSLFTRAILQSGSFNAPWAVTSLYEARNRTLNLAKLTGCSRENETEIIKCLRNKDPQEILLNEAFVVPYGTPLSVNFGPTVDGDFLTDMPDILLELGQFKKTQILVGVNKDEGTAFLVYGAPGFSKDNNSIITRKEFQEGLKIFFPGVSEFGKESILFHYTDWVDDQRPENYREALGDVVGDYNFICPALEFTKKFSEWGNNAFFYYFEHRSSKLPWPEWMGVMHGYEIEFVFGLPLERRDNYTKAEEILSRSIVKRWANFAKYGNPNETQNNSTSWPVFKSTEQKYLTLNTESTRIMTKLRAQQCRFWTSFFPKVLEMTGNIDEAEWEWKAGFHRWNNYMMDWKNQFNDYTSKKESCVGL
[4]
  Km: 40 µM
[5]; HPLC assay, conditioned media
  CPT-11 conversion: less than 1%
[5]; conditioned media
  SN-38 formation from CPT-11 (in words): did not show detectable levels of SN-38
[6]
  carboxylesterase activity relative to the level of activity seen with F227A: approximately 50%

B3: F227A/S287P (protein)
chain: B2 Cholinesterase with F227A, S287X
modifications: Synthetic butyrylcholinesterase variant; VARIANT (227)..(227): F227A; VARIANT (287)..(287): Xaa = Pro
[5]; compared to wild-type butyrylcholinesterase, conditioned media exposed to 20 mM CPT-11 for 72 hours at 37° C., conservative values
  Fold improvement in CPT-11 conversion: >6 fold
[5]; conditioned media
  SN-38 formation from CPT-11 (in words): increased CPT-11 conversion to SN-38

B4: 4-1 variant (protein)
chain: B2 Cholinesterase with H77F, F227X, P285N, V331A
modifications: Synthetic butyrylcholinesterase variant; VARIANT (77)..(77): H77F; VARIANT (227)..(227): Xaa = Ala; VARIANT (285)..(285): P285N; VARIANT (331)..(331): V331A
[4]
  Km: ~7 µM
  fold increase in CPT-11 hydrolysis over wild-type BChE: > 3000 fold
  fold improvement in the Km for CPT-11: 5-6 fold
[4]; listed as BChE variant 4-1
  Km: 6.9 µM
  fold increase in CPT-11 hydrolysis over wild-type BChE: > 3000 fold
  fold improvement in the Km for CPT-11: > 5 fold
[4]; listed as SEQ ID NO: 180
  fold increase in CPT-11 hydrolysis over wild-type BChE: three thousand

B5: AME133 (protein)
light: EIVLTQSPGTLSLSPGERATLSCRASSSVPYIHWYQQKPGQAPRLLIYATSALASGIPDRFSGSGSGTDFTLTISRLEPEDFAVYYCQQWLSNPPTFGQGTKLEIKRTVAAPSVFIFPPSDEQLKSGTASVVCLLNNFYPREAKVQWKVDNALQSGNSQESVTEQDSKDSTYSLSSTLTLSKADYEKHKVYACEVTHQGLSSPVTKSFNRGEC
heavy: EVQLVQSGAEVKKPGESLKISCKGSGRTFTSYNMHWVRQMPGKGLEWMGAIYPLTGDTSYNQKSKLQVTISADKSISTAYLQWSSLKASDTAMYYCARSTYVGGDWQFDVWGKGTTVTVSSASTKGPSVFPLAPSSKSTSGGTAALGCLVKDYFPEPVTVSWNSGALTSGVHTFPAVLQSSGLYSLSSVVTVPSSSLGTQTYICNVNHKPSNTKVDKKAEPKSCDKTHTCPPCPKLEDDIIIATKNGKVRGMNLTVFGGTVTAFLGIPYAQPPLGRLRFKKPQSLTKWSDIWNATKYANSCCQNIDQSFPGFFGSEMWNPNTDLSEDCLYLNVWIPAPKPKNATVLIWIYGGGFQTGTSSLHVYDGKFLARVERVIVVSMNYRVGALGFLALPGNPEAPGNMGLFDQQLALQWVQKNIAAFGGNPKSVTLFGESAGAASVSLHLLSPGSHSLFTRAILQSGSANAPWAVTSLYEARNRTLNLAKLTGCSRENETEIIKCLRNKDPQEILLNEAFVVPYGTNLSVNFGPTVDGDFLTDMPDILLELGQFKKTQILVGVNKDEGTAFLAYGAPGFSKDNNSIITRKEFQEGLKIFFPGVSEFGKESILFHYTDWVDDQRPENYREALGDVVGDYNFICPALEFTKKFSEWGNNAFFYYFEHRSSKLPWPEWMGVMHGYEIEFVFGLPLERRDNYTKAEEILSRSIVKRWANFAKYGNPNETQNNSTSWPVFKSTEQKYLTLNTESTRIMTKLRAQQCRFWTSFFPKV
modifications: Synthetic butyrylcholinesterase variant; MISC_FEATURE (1)..(213): Anti-CD20 antibody light chain; MISC_FEATURE (1)..(765): Anti-CD20 antibody VH-CH1 hinge cys L530 BChE.4-1 heavy chain construct
CD20
  Kd: 1 nM
